According to patent publication US20070004636A1, “Method of degrading transcriptional factors of saccharometabolism-associated gene, method for inhibiting the degradation, and agent for inhibiting degradation and degradation inhibitor” (priority 2002, published 2007):

B1: human μ-calpain: μ-Calpain extracted from human erythrocytes (Calpain 1, human erythrocytes; Calbiochem, Inc.) (protein, UniProt P07384 2-714; P04632 1-268, looked up)
Calpain-1 catalytic subunit: SEEIITPVYCTGVSAQVQKQRARELGLGRHENAIKYLGQDYEQLRVRCLQSGTLFRDEAFPPVPQSLGYKDLGPNSSKTYGIKWKRPTELLSNPQFIVDGATRTDICQGALGDCWLLAAIASLTLNDTLLHRVVPHGQSFQNGYAGIFHFQLWQFGEWVDVVVDDLLPIKDGKLVFVHSAEGNEFWSALLEKAYAKVNGSYEALSGGSTSEGFEDFTGGVTEWYELRKAPSDLYQIILKALERGSLLGCSIDISSVLDMEAITFKKLVKGHAYSVTGAKQVNYRGQVVSLIRMRNPWGEVEWTGAWSDSSSEWNNVDPYERDQLRVKMEDGEFWMSFRDFMREFTRLEICNLTPDALKSRTIRKWNTTLYEGTWRRGSTAGGCRNYPATFWVNPQFKIRLDETDDPDDYGDRESGCSFVLALMQKHRRRERRFGRDMETIGFAVYEVPPELVGQPAVHLKRDFFLANASRARSEQFINLREVSTRFRLPPGEYVVVPSTFEPNKEGDFVLRFFSEKSAGTVELDDQIQANLPDEQVLSEEEIDENFKALFRQLAGEDMEISVKELRTILNRIISKHKDLRTKGFSLESCRSMVNLMDRDGNGKLGLVEFNILWNRIRNYLSIFRKFDLDKSGSMSAYEMRMAIESAGFKLNKKLYELIITRYSEPDLAVDFDNFVCCLVRLETMFRFFKTLDTDLDGVVTFDLFKWLQLTMFA
Calpain small subunit 1: MFLVNSFLKGGGGGGGGGGGLGGGLGNVLGGLISGAGGGGGGGGGGGGGGGGGGGGTAMRILGGVISAISEAAAQYNPEPPPPRTHYSNIEANESEEVRQFRRLFAQLAGDDMEVSATELMNILNKVVTRHPDLKTDGFGIDTCRSMVAVMDSDTTGKLGFEEFKYLWNNIKRWQAIYKQFDTDRSGTICSSELPGAFEAAGFHLNEHLYNMIIRRYSDESGNMDFDNFISCLVRLDAMFRAFKSLDKDGTGQIQVNIQEWLQLTMYS
B2: rat m-calpain: rat m-calpain (Calpain 2, rat recombinant, E. coli, Calbiochem, Inc.), positive control (protein)
chain: MAGIAMKLAKDREAAEGLGSHERAIKYLNQDYETLRNECLEAGALFQDPSFPALPSSLGFKELGPYSSKTRGIEWKRPTEICADPQFIIGGATRTDICQGALGDCWLLAAIASLTLNEEILARVVPLDQSFQENYAGIFHFQFWQYGEWVEVVVDDRLPTKDGELLFVHSAEGSEFWSALLEKAYAKINGCYEALSGGATTEGFEDFTGGIAEWYELRKPPPNLFKIIQKALEKGSLLGCSIDITSAADSEAVTYQKLVKGHAYSVTGAEEVESSGSLQKLIRIRNPWGQVEWTGKWNDNCPSWNTVDPEVRANLTERQEDGEFWMSFSDFLRHYSRLEICNLTPDTLTCDSYKKWKLTKMDGNWRRGSTAGGCRNYPNTFWMNPQYLIKLEEEDEDDEDGERGCTFLVGLIQKHRRRQRKMGEDMHTIGFGIYEVPEELTGQTNIHLSKNFFLTTRARERSDTFINLREVLNRFKLPPGEYVLVPSTFEPHKNGDFCIRVFSEKKADYQTVDDEIEANIEEIEANEEDIGDGFRRLFAQLAGEDAEISAFELQTILRRVLAKREDIKSDGFSIETCKIMVDMLDEDGSGKLGLKEFYILWTKIQKYQKIYREIDVDRSGTMNSYEMRKALEEAGFKLPCQLHQVIVARFADDELIIDFDNFVRCLVRLEILFKIFKQLDPENTGTIQLDLISWLSFSVL

Key:
Type in all cases: biochemical
Conditions in all cases: 1 hour at 37° C.
[1] = tested on: human IPF-1; assay: in vitro protein degradation test of IPF-1 by calpain (Western blotting)
Description: Using the IPF-1 expression plasmid, synthesis of IPF-1 protein was carried out in vitro using the TNT T7 Quick Coupled Transcription/Translation System. That is, the IPF-1 expression plasmid was mixed with TNT T7 Quick Master Mix, and then incubated for 1.5 hours at 30° C. in the presence of methionine to synthesize IPF-1.
Protein degradation tests were carried out in vitro by adding μ-calpain or m-calpain to IPF-1, and incubating for 1 hour at 37° C. in the presence of 200 mM Tris-HCl (pH 7.8)/1 mM DTT/6 mM CaCl2. The final concentrations of each calpain in the reaction systems were as follows: 50 units/mL of human μ-calpain; 50 μg/mL of rabbit m-calpain as a protein concentration, and 59 units/mL of rat m-calpain. For a control experiment, IPF-1 was incubated without addition of calpain in the same manner in the presence of calcium. Further, to test for protein degradation in the absence of calcium, a sample was prepared by adding 10 mM of EDTA instead of 6 mM of CaCl2, and incubated in the same manner. The samples after incubation were added to an equal volume of 2×SDS sample buffer, heated for 5 minutes, and subjected to 5-20% SDS-PAGE for separation. Thereafter, Western blotting was carried out to detect IPF-1 using anti-Xpress antibody and anti-IPF1 (PDX-1) antibody/N-18 (Santa Cruz Biotechnology, Inc.). The ECL Western blotting detection kit was used for conducting the detection.
In-vitro protein degradation tests were carried out in the same manner as Example 10, but the lysate of sf-9 cells that coexpressed m-calpain with calpain small subunit 1 was used as m-calpain. The final concentration of the lysate of sf-9 cells that expressed these proteins in the reaction system was 2.33 mg/mL as a protein concentration. The final concentration of rat m-calpain in the reaction system was 59 units/mL. Detection of IPF-1 was performed in the same manner as Example 10, but only anti-IPF-1 antibody/N-18 was used.

[2] = tested on: human HNF-1α; assay: in vitro protein degradation test of HNF-1α by calpain (Western blotting)
Description: Using the HNF-1α expression plasmid, in vitro synthesis of HNF-1α protein was carried out using the TNT T7 Quick Coupled Transcription/Translation System. That is, the HNF-1α expression plasmid was mixed with TNT T7 Quick Master Mix, and then incubated for 1.5 hours at 30° C. in the presence of methionine to synthesize HNF-1α. Thereafter, immunoprecipitation was conducted by adding anti-Xpress antibody to the synthesized HNF-1α, mixing by inversion for 1 hour at 4° C., and then adding Protein G Sepharose 4 Fast Flow and mixing by inversion for an additional 1 hour at 4° C. Subsequently, Protein G Sepharose was collected by centrifugation and washed 3 times with washing buffer (50 mM Tris-HCl, pH 7.5/150 mM NaCl/0.2% Nonidet P-40), followed by rinsing with 200 mM Tris-HCl (pH 7.8) to obtain the HNF-1α sample as 20% slurry (hereunder, referred to as “HNF-1α slurry”).
Protein degradation tests were carried out in vitro by adding μ-calpain or m-calpain to the HNF-1α slurry, and incubating for 1 hour at 37° C. in the presence of 200 mM Tris-HCl (pH 7.8)/1 mM DTT/6 mM CaCl2. The final concentrations of the respective calpain in the reaction system were as follows: 50 units/mL of human μ-calpain; 50 μg/mL of rabbit m-calpain as a protein concentration; and 59 units/mL of rat m-calpain. For a control experiment, an HNF-1α slurry was incubated without the addition of calpain in a similar manner in the presence of calcium. Further, to test for protein degradation in the absence of calcium, a sample was prepared by adding 10 mM of EDTA instead of 6 mM of CaCl2 and was incubated in the same manner. The samples after incubation were added to an equal volume of 2×SDS sample buffer, heated for 5 minutes, and then subjected to 5-20% SDS-PAGE for separation. Thereafter, Western blotting was carried out to detect HNF-1α using anti-Omni/M21 antibody (Santa Cruz Biotechnology, Inc.), which recognizes a His-Xpress region, and anti-HNF-1α antibody/HNF-1α (C-19) antibody (Santa Cruz Biotechnology, Inc.). An ECL Western blotting detection kit was used for conducting the detection.
In-vitro protein degradation tests were carried out in the same manner as in Example 7, but the lysate of sf-9 cells that coexpressed m-calpain with calpain small subunit 1 was used as m-calpain. The final concentration of the lysate of the sf-9 cells that expressed these proteins in the reaction system was 1.75 mg/mL as a protein concentration. The final concentration of rat m-calpain in the reaction system was 59 units/mL. Detection of HNF-1α was performed in the same manner as Example 7, but only anti-HNF-1α antibody/HNF-1α (C-19) antibody was used.

[3] = tested on: human HNF-4α; assay: in vitro protein degradation test of HNF-4α by calpain (Western blotting)
Description: Using the HNF-4α expression plasmid, in vitro synthesis of HNF-4α protein was conducted using the TNT T7 Quick Coupled Transcription/Translation System (Promega, Inc.). That is, the HNF-4α expression plasmid was mixed with TNT T7 Quick Master Mix, and then incubated for 1.5 hours at 30° C. in the presence of methionine to synthesize HNF-4α.
The in vitro protein degradation test was carried out by adding m-calpain extracted from rabbit muscle (Protease, Calcium-Activated Neutral (calpain), Sigma Chemical Co.) at a final concentration of 50 μg/mL to the synthesized HNF-4α, and then incubating for 1 hour at 37° C. in the presence of 200 mM Tris-HCl (pH 7.8)/1 mM dithiothreitol (DTT)/6 mM CaCl2. To conduct a degradation test in the absence of calcium, a test sample was prepared by adding 10 mM ethylenediaminetetraacetic acid (EDTA) instead of 6 mM CaCl2, and the sample was then incubated in a similar manner. The samples after incubation were added to an equal volume of 2× sodium dodecyl sulfate (SDS) sample buffer (4% SDS/125 mM Tris-HCl, pH 6.8/20% glycerol/0.01% bromphenol blue (BPB)/10% β-mercaptoethanol), heated for 5 minutes, and subjected to 10% SDS-PAGE for separation. Thereafter, Western blotting was carried out to detect HNF-4α using anti-HNF-4α antibody/HNF-4α (C-19) antibody (Santa Cruz Biotechnology, Inc.) and anti-Xpress antibody (Invitrogen, Inc.). An ECL Western blotting detection kit (Amersham pharmacia biotech) was used for the detection.
The final concentration of human m-calpain in the reaction system was 2.33 mg/mL as the protein concentration of the lysate of sf-9 cells that expressed human m-calpain. The final concentration of rat m-calpain in the reaction system was 59 units/mL. A degradation test was also conducted in the same manner without addition of calpain. Further, to test for degradation in the absence of calcium, a sample was prepared by adding 10 mM of EDTA instead of 6 mM CaCl2, and a degradation test was conducted with the sample in a similar manner. The samples after incubation were added to an equal volume of 2×SDS sample buffer, heated for 5 minutes, and subjected to 5-20% SDS-PAGE for separation. Thereafter, Western blotting was carried out to detect HNF-4α using anti-HNF-4α antibody/HNF-4α (C-19) antibody. An ECL Western blotting detection kit was used for the detection.
An in vitro protein degradation test was carried out by adding μ-calpain to HNF-4α at a final concentration of 50 units/mL, and incubating for 1 hour at 37° C. in the presence of 200 mM Tris-HCl (pH 7.8)/1 mM DTT/6 mM CaCl2. […]

[4] = in the absence of calcium (10 mM EDTA instead of CaCl2)
[5] = in the presence of calcium (6 mM CaCl2), Western blotting

Molecule | degradation of IPF-1 [1, 4] | degradation of IPF-1 [1, 5] | degradation of HNF-1α [2, 4] | degradation of HNF-1α [2, 5] | degradation of HNF-4α [3, 4] | degradation of HNF-4α [3, 5]
B1 | not degraded | observed | not degraded | observed | not observed | observed
B2 | not degraded | observed | not degraded | observed |  | 
